Results published in patent US20220396626A1 (GUANGZHOU BIO GENE TECHNOLOGY, published 2022).

T1: Recombinant Cynomolgus Monkey CLL-1 Protein (his), Acro CLA-H5263 (cynomolgus monkey, UniProt A0A2K5WXQ4 71-271)
T1 construct: also called Analyte 2
T1 sequence: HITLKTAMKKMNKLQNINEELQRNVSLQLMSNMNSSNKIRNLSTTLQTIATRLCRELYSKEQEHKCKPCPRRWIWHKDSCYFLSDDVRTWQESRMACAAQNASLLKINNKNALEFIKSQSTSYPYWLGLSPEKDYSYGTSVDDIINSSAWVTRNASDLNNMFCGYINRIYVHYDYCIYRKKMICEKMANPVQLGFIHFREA

T2: Recombinant Human CLL-1 Protein (his), Acro CLA-H5245 (human, UniProt Q5QGZ9 65-265)
T2 construct: also called Analyte 1; not shown: his tag
T2 sequence (looked up): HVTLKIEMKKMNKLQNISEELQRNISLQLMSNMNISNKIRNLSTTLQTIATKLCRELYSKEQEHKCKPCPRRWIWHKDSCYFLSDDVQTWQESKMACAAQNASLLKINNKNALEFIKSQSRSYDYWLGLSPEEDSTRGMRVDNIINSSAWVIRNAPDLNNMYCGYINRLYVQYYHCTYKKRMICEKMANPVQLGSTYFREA

T3: human CLL1 ECD-His (human CLL1 extracellular domain with His tag) (human, UniProt Q5QGZ9 65-265)
T3 construct: also called antigen human CLL1 ECD-His; antigen CLL1; not shown: His tag
T3 sequence: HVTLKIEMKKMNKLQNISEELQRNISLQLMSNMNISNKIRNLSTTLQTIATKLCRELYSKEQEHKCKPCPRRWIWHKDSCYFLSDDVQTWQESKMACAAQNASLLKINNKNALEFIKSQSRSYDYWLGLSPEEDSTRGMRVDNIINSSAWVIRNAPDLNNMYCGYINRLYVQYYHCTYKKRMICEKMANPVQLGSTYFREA

T4: human CLL1 on the surface of transfected cells (HEK293-CLL1; HEK-293T membrane proteome array) (human, UniProt Q5QGZ9 1-265)
T4 construct: whole, on cells; also called HEK293-CLL1 cells; CLL1 target antigen
T4 sequence (looked up): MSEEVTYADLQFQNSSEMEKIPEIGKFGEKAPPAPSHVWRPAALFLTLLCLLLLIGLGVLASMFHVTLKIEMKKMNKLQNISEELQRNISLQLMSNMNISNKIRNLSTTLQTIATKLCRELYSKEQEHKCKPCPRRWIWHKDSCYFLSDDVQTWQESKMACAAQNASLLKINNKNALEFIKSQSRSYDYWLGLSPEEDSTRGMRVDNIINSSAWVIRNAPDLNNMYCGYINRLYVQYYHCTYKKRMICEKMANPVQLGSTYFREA


Columns and labels:
[1] = molecular target: T1, Recombinant Cynomolgus Monkey CLL-1 …; assay: SPR, antibody captured on Protein A chip, cynomolgus CLL-1 as analyte
[2] = molecular target: T2, Recombinant Human CLL-1 Protein (his), …; assay: SPR, antibody captured on Protein A chip, recombinant human CLL-1 as analyte 3.125-50 nM, 1:1 model
[3] = molecular target: T3, human CLL1 ECD-His (human CLL1 …); assay: BLI (ForteBio), antibody on AHC sensor, 60 nM human CLL1 ECD-His, 1:1 model
Protocol: In short, 4 μg/mL antibody was loaded on the anti-human IgG capture (AHC) biosensor, the sensor was equilibrated offline for 30 min in the assay buffer, and the online monitoring was used for 60 s to establish the baseline; the antibody-loaded sensor was incubated with the 60 nM antigen human CLL1 ECD-His for 3 min, then transferred to the assay buffer, and the dissociation rate was measured after 3 min; the kinetic analysis was performed using a 1:1 binding model.

[4] = molecular target: T4, human CLL1 on the surface of …; assay: flow cytometry on HEK293 cells overexpressing CLL1
Description: In the present example, flow cytometry was used to detect the binding of antibodies hz27H4H1L1, hz27H4H1L2 and CLL1 on HEK293 cells.

[5] = molecular target: T4, human CLL1 on the surface of …; assay: flow cytometry on HEK293 cells overexpressing CLL1, FITC goat anti-human IgG-Fc secondary; controls on the sheet: Cells + Secondary Antibody 1029.8, Blank 1041.3
Protocol: In the present example, flow cytometry was used to detect the binding of antibodies ch23D7, ch27H4, and ch19C1 to CLL1 on HEK293 cells. The steps are as follows:
5×10⁵ HEK293 cells overexpressing CLL1 were resuspended in PBS+5% BSA and incubated at 4° C. for 30 min; antibodies of different concentrations (1 μg/mL˜0.01 μg/mL, 10-fold dilutions) were added and incubated at 4° C. for 60 min; after centrifugation and washing, a PBS+5% BSA solution containing FITC-labeled goat anti-human IgG-Fc secondary antibody (1:200, sigma, F9512) was added, and incubated on ice for 30 min in the dark; the cells were washed 3 times and then analyzed by flow cytometry;

[6] = molecular target: T3, human CLL1 ECD-His (human CLL1 …); assay: BLI (ForteBio), antibody on AHC sensor, 100 nM human CLL1 ECD-His, 1:1 model
Protocol: In short, the antibody was loaded on the anti-human IgG capture (AHC) biosensor, the sensor was equilibrated in the assay buffer for 30 min offline, and monitored online for 60 s to establish the baseline; the antibody-loaded sensor was incubated with the 100 nM antigen human CLL1 ECD-His for 5 min, then transferred to the assay buffer, and the dissociation rate was measured after 5 min; the kinetic analysis was carried out using a 1:1 combination model.

Binder | binding result [1] | Kd [2] [nM] | koff [2] [s⁻¹] | kon [2] [M⁻¹ s⁻¹] | Kd [3] [nM] | Response [3] | koff [3] [s⁻¹] | kon [3] [M⁻¹ s⁻¹] | EC50 [4] [µg/mL] | MFI at 0.01ug/ml [5] | MFI at 0.1ug/ml [5] | MFI at 1ug/ml [5] | Kd [6] [nM] | Response [6] | koff [6] [s⁻¹] | kon [6] [M⁻¹ s⁻¹]
27H4-scFv-hFc (Fc fusion, VL-(G4S)3-VH structure with C-terminal human IgG1 Fc; also called Anti-CLL1 scFv-hIgG1; not shown: human IgG1 Fc fused at the C-terminus) scFv: DIVMSQSPSSLAVSVGEKVTMSCKSSQSLLYSDNQKNYLAWYQQKPGQSPKLLIYWASTRESGVPDRFTGSGSGTDFTLTISSVKAEDLAVYYCQQYYTYPYTFGGGTKLEIKGGGGSGGGGSGGGGSEVQLQQSGPELVKPGASVKISCKASGYSFTGYHMHWVKQSHVKSLEWIGRINPYNGAASHNQKFKDKATLTVDKSSSTAYMELHSLTSEDSAVYYCARGWDYDGGYYAMDYWGQGTSVTVSS | no binding (tested: 50 nM) | 3.06 | 0.0126 | 4.11e+06 | – | – | – | – | – | – | – | – | – | – | – | –
humanized antibody hz27H4H1L1 (antibody, V domains shown, Heavy chain variable region hz27H4H1 with light chain variable region hz27H4L1; also called h27H4H1L1 (complete antibody)) VH: EVQLVQSGAEVKKPGASVKVSCKASGYTFTGYHMHWVRQAPGQRLEWMGRINPYNGAASHNQKFKDRVTITRDTSASTAYMELSSLRSEDTAVYYCARGWDYDGGYYAMDYWGQGTLVTVSS VL: DIQMTQSPSSLSASVGDRVTITCKSSQSLLYSDNQKNYLAWYQQKPGKAPKLLIYWASTRESGVPSRFSGSGSGTDFTLTISSLQPEDFATYYCQQYYTYPYTFGQGTKLEIK | no binding (tested: 50 nM) | 1.12 | 0.00549 | 4.91e+06 | 2.29 | 0.612 | 0.000862 | 377000 | 0.262 | – | – | – | – | – | – | –
humanized antibody hz27H4H1L3 (antibody, V domains shown, Heavy chain variable region hz27H4H1 with light chain variable region hz27H4L3) VH: EVQLVQSGAEVKKPGASVKVSCKASGYTFTGYHMHWVRQAPGQRLEWMGRINPYNGAASHNQKFKDRVTITRDTSASTAYMELSSLRSEDTAVYYCARGWDYDGGYYAMDYWGQGTLVTVSS VL: not shown | – | – | – | – | 2.49 | 0.722 | 0.00109 | 438000 | – | – | – | – | – | – | – | –
humanized antibody hz27H4H1L2 (antibody, V domains shown, Heavy chain variable region hz27H4H1 with light chain variable region hz27H4L2; also called h27H4H1L2 (complete antibody)) VH: EVQLVQSGAEVKKPGASVKVSCKASGYTFTGYHMHWVRQAPGQRLEWMGRINPYNGAASHNQKFKDRVTITRDTSASTAYMELSSLRSEDTAVYYCARGWDYDGGYYAMDYWGQGTLVTVSS VL: DIVMTQSPLSLPVTPGEPASISCKSSQSLLYSDNQKNYLAWYLQKPGQSPQLLIYWASTRESGVPDRFSGSGSGTDFTLKISRVEAEDVGVYYCQQYYTYPYTFGQGTKLEIK | no binding (tested: 50 nM) | 1.08 | 0.00544 | 5.04e+06 | 2.21 | 0.726 | 0.000976 | 441000 | 0.321 | – | – | – | – | – | – | –
anti-human CLL-1 control antibody 1075.7 (antibody, it was captured by anti-human IgG sensors and detected with anti-human IgG-Fc, so a human Fc was present; also called ch1075.7) scFv: ENVLTQSPAIMSASPGEKVTMTCRASSNVISSYVHWYQQRSGASPKLWIYSTSNLASGVPARFSGSGSGTSYSLTISSVEAEDAATYYCQQYSGYPLTFGAGTKLELGGGGSGGGGSGGGGSDIQLQESGPGLVKPSQSLSLTCSVTGYSITSAYYWNWIRQFPGNKLEWMGYISYDGRNNYNPSLKNRISITRDTSKNQFFLKLNSVTTEDTATYYCAKEGDYDVGNYYAMDYWGQGTSVTVSS | – | – | – | – | 6.76 | 0.219 | 0.000997 | 148000 | 0.245 | 4580 | 35600 | 222000 | 0.414 | 0.236 | 4.48e-05 | 108000
19C1-scFv-hFc (Fc fusion, VL-(G4S)3-VH structure with C-terminal human IgG1 Fc; also called Anti-CLL1 scFv-hIgG1; not shown: human IgG1 Fc fused at the C-terminus) scFv: QIVLTQSPAIMSASPGEKVTMTCSASSSVSYMYWYQQKPGSSPRLLIFDTSNLASGVPVRFSGSGSGTSYSLTISRMEAEDAATYYCQQWSSYPLTFGAGTKLELKGGGGSGGGGSGGGGSQVQLQQSGAELMKPGASVKISCKATGYTFSSYWIEWVKQRPGHGLEWIGEIFPGSGSIKYNEKFKGKATFTADTSSNTAYMQLSSLTSEDSAVHYCARGGTYNDYSLFDYWGQGTTLTVSS | no binding (tested: 50 nM) | 5.75 | 0.00509 | 886000 | – | – | – | – | – | – | – | – | – | – | – | –
chimeric antibody ch19C1 (antibody, V domains shown) VH: QVQLQQSGAELMKPGASVKISCKATGYTFSSYWIEWVKQRPGHGLEWIGEIFPGSGSIKYNEKFKGKATFTADTSSNTAYMQLSSLTSEDSAVHYCARGGTYNDYSLFDYWGQGTTLTVSS VL: QIVLTQSPAIMSASPGEKVTMTCSASSSVSYMYWYQQKPGSSPRLLIFDTSNLASGVPVRFSGSGSGTSYSLTISRMEAEDAATYYCQQWSSYPLTFGAGTKLELK | – | – | – | – | – | – | – | – | – | 4610 | 35900 | 163000 | 10.9 | 0.619 | 0.00197 | 180000
chimeric antibody ch23D7 (antibody, V domains shown) VH: QVQLQQPGSDLVRPGASVKLSCKASGYTFTRYWMHWVKQRPGHGLEWIGYIYPGSGTSNYDEKFKSKATLTVDTSSSTAYMQLSSLTSEDSAVYYCTREARYTMDYWGQGTSVTVSS VL: QIVLTQSPAIMSASPGEKVTMTCSASSSVSYIYWYQQKPGSSPGLLIYDTSNLASGVPVRFSGSGSGTSYSLTISRMEAEDAATYYCQQWSSFPPTFGAGTKLELK | – | – | – | – | – | – | – | – | – | 4690 | 34600 | 151000 | 2.19 | 0.654 | 0.000284 | 130000
23D7-scFv-hFc (Fc fusion, VL-(G4S)3-VH structure with C-terminal human IgG1 Fc; also called Anti-CLL1 scFv-hIgG1; not shown: human IgG1 Fc fused at the C-terminus) scFv: QIVLTQSPAIMSASPGEKVTMTCSASSSVSYIYWYQQKPGSSPGLLIYDTSNLASGVPVRFSGSGSGTSYSLTISRMEAEDAATYYCQQWSSFPPTFGAGTKLELKGGGGSGGGGSGGGGSQVQLQQPGSDLVRPGASVKLSCKASGYTFTRYWMHWVKQRPGHGLEWIGYIYPGSGTSNYDEKFKSKATLTVDTSSSTAYMQLSSLTSEDSAVYYCTREARYTMDYWGQGTSVTVSS | no binding (tested: 50 nM) | 110 | 0.0322 | 293000 | – | – | – | – | – | – | – | – | – | – | – | –
chimeric antibody ch27H4 (antibody, V domains shown, also called parent antibody) VH: EVQLQQSGPELVKPGASVKISCKASGYSFTGYHMHWVKQSHVKSLEWIGRINPYNGAASHNQKFKDKATLTVDKSSSTAYMELHSLTSEDSAVYYCARGWDYDGGYYAMDYWGQGTSVTVSS VL: DIVMSQSPSSLAVSVGEKVTMSCKSSQSLLYSDNQKNYLAWYQQKPGQSPKLLIYWASTRESGVPDRFTGSGSGTDFTLTISSVKAEDLAVYYCQQYYTYPYTFGGGTKLEIK | – | – | – | – | 3.88 | 0.597 | 0.00124 | 320000 | 0.358 | 3510 | 25200 | 163000 | 3.83 | 0.634 | 0.00101 | 265000
